In publication PMC5685557 (Structure (London, England : 1993), 2017):
“And” between values parts separate entries of the source, which are not always exact repeats. Identical values can stand only once.

Tests used:
[1] = molecular target: the molecule itself; experiment: SEC-SAXS
[2] = molecular target: the molecule itself; experiment: SEC
[3] = molecular target: the molecule itself; experiment: non-reducing SDS-PAGE
[4] = molecular target: the molecule itself; experiment: cross-linking
[5] = molecular target: the molecule itself; experiment: SEC; remark: listed apart in the source

Protein	stoichiometry N [1]	stoichiometry N [2]	stoichiometry N [3]	stoichiometry N [4]	binding result [5]
mouse myocilin leucine zipper construct mLZ_(93-171) (domain or fragment, UniProt O70624 93-171, looked up) VTGTQEAQEGLQGQLGALRRERDQLETQTRDLEAAYNNLLRDKSALEEEKRQLEQENEDLARRLESSSEEVTRLRRGQC	2.2	–	–	–	–
myocilin coiled-coil construct CC_(112-185) (domain or fragment, human, UniProt Q99972 112-185, looked up) ETQEGLQRELGTLRRERDQLETQTRELETAYSNLLRDKSVLEEEKKRLRQENENLARRLESSSQEVARLRRGQC	2.4	2	–	–	–
myocilin coiled-coil construct CC_(69-184) (domain or fragment, human, UniProt Q99972 69-184, looked up) SVIHNLQRDSSTQRLDLEATKARLSSLESLLHQLTLDQAARPQETQEGLQRELGTLRRERDQLETQTRELETAYSNLLRDKSVLEEEKKRLRQENENLARRLESSSQEVARLRRGQ	–	4	–	–	–
myocilin coiled-coil construct CC_(60-185) (domain or fragment, human, UniProt Q99972 60-185, looked up) SCPEQSQAMSVIHNLQRDSSTQRLDLEATKARLSSLESLLHQLTLDQAARPQETQEGLQRELGTLRRERDQLETQTRELETAYSNLLRDKSVLEEEKKRLRQENENLARRLESSSQEVARLRRGQC	4.9	–	–	–	–
myocilin N-terminal domain construct NTD_(33-226), wild type (domain or fragment, human, UniProt Q99972 33-226, looked up) RTAQLRKANDQSGRCQYTFSVASPNESSCPEQSQAMSVIHNLQRDSSTQRLDLEATKARLSSLESLLHQLTLDQAARPQETQEGLQRELGTLRRERDQLETQTRELETAYSNLLRDKSVLEEEKKRLRQENENLARRLESSSQEVARLRRGQCPQTRDTARAVPPGSREVSTWNLDTLAFQELKSELTEVPASR	–	–	~8	2 and 4	–
NTD_(33-226) (C47S/C61S/C185S) (domain or fragment, human, UniProt Q99972 33-226, looked up) RTAQLRKANDQSGRSQYTFSVASPNESSSPEQSQAMSVIHNLQRDSSTQRLDLEATKARLSSLESLLHQLTLDQAARPQETQEGLQRELGTLRRERDQLETQTRELETAYSNLLRDKSVLEEEKKRLRQENENLARRLESSSQEVARLRRGQSPQTRDTARAVPPGSREVSTWNLDTLAFQELKSELTEVPASR	–	–	–	–	binds
myocilin coiled-coil construct CC_(69-185) (domain or fragment, human, UniProt Q99972 69-185, looked up) SVIHNLQRDSSTQRLDLEATKARLSSLESLLHQLTLDQAARPQETQEGLQRELGTLRRERDQLETQTRELETAYSNLLRDKSVLEEEKKRLRQENENLARRLESSSQEVARLRRGQC	3.6	–	2	4	–
myocilin construct CC_(33-111) (domain or fragment, human, UniProt Q99972 33-111, looked up) RTAQLRKANDQSGRCQYTFSVASPNESSCPEQSQAMSVIHNLQRDSSTQRLDLEATKARLSSLESLLHQLTLDQAARPQ	2.8	4	–	2	–
